Data published in patent publication US20140294898A1 (published 2014).

biological target: T1, hPDL1(19-239)-TVMV-His (human, UniProt Q9NZQ7 19-239); assay: HTRF competition, PD-1-Ig (20 nM) binding to human PD-L1-His (10 nM)
T1 construct: The construct name says 19-239, the running text says amino acids 18-239; Expressed in HEK293T cells; also called PD-L1-His; PD-L1-TVMV-His
Method: (§1) All binding studies were performed in an HTRF assay buffer consisting of dPBS supplemented with 0.1% (w/v) bovine serum albumin and 0.05% (v/v) Tween-20. […] PD-L1 fusion proteins from either human, cynomologous macaques, or mouse were used. HTRF detection was achieved using europium crypate-labeled anti-Ig monoclonal antibody (1 nM final) and allophycocyanin (APC) labeled anti-His monoclonal antibody (20 nM final). Antibodies were diluted in HTRF detection buffer and 5 μl was dispensed on top of binding reaction. The reaction was allowed to equilibrate for 30 minutes and signal (665 nm/620 nm ratio) was obtained using an EnVision fluorometer. […]
HTRF Experiments were performed essentially as outlined supra. Variant macrocyclic peptides were created as outlined herein.

T1 sequence (Q9NZQ7 other isoform, or with tags, fused parts or gaps limits assumed): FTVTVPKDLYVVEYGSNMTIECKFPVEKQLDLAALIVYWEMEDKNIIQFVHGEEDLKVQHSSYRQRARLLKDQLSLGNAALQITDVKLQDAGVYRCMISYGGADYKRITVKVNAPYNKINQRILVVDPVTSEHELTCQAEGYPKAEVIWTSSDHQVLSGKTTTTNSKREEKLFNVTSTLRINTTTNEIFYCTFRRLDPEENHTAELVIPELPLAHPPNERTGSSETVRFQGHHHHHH

Binder	IC50 [nM]
FANPHLGWSWFXRCG (HELM PEPTIDE1{[O=C(C[*:3])[*:2]].F.[meA].N.P.H.L.[Sar].W.S.W.[meF].[CCCC[C@@H](C(=O)[*:2])N(C)[*:1]].R.C.G.[am]}$PEPTIDE1,PEPTIDE1,1:R3-15:R3$$$V2.0; SMILES CCCC[C@H]1C(=O)N[C@@H](CCCNC(=N)N)C(=O)N[C@H](C(=O)NCC(N)=O)CSCC(=O)N[C@@H](Cc2ccccc2)C(=O)N(C)[C@@H](C)C(=O)N[C@@H](CC(N)=O)C(=O)N2CCC[C@H]2C(=O)N[C@@H](Cc2c[nH]cn2)C(=O)N[C@@H](CC(C)C)C(=O)N(C)CC(=O)N[C@@H](Cc2c[nH]c3ccccc23)C(=O)N[C@@H](CO)C(=O)N[C@@H](Cc2c[nH]c3ccccc23)C(=O)N(C)[C@@H](Cc2ccccc2)C(=O)N1C, macrocyclic peptide cyclized via the ClAc moiety with the downstream cysteine) [Compound No. 67]	108
FANPHLGWSWFXRCG (HELM PEPTIDE1{[O=C(C[*:3])[*:2]].F.[meA].N.P.H.L.[Sar].W.S.W.F.[CCCC[C@@H](C(=O)[*:2])N(C)[*:1]].R.C.G.[am]}$PEPTIDE1,PEPTIDE1,1:R3-15:R3$$$V2.0; SMILES CCCC[C@H]1C(=O)N[C@@H](CCCNC(=N)N)C(=O)N[C@H](C(=O)NCC(N)=O)CSCC(=O)N[C@@H](Cc2ccccc2)C(=O)N(C)[C@@H](C)C(=O)N[C@@H](CC(N)=O)C(=O)N2CCC[C@H]2C(=O)N[C@@H](Cc2c[nH]cn2)C(=O)N[C@@H](CC(C)C)C(=O)N(C)CC(=O)N[C@@H](Cc2c[nH]c3ccccc23)C(=O)N[C@@H](CO)C(=O)N[C@@H](Cc2c[nH]c3ccccc23)C(=O)N[C@@H](Cc2ccccc2)C(=O)N1C, macrocyclic peptide cyclized via the ClAc moiety with the downstream cysteine) [Compound No. 69]	77
FANPHLGWSWSXRCG (HELM PEPTIDE1{[O=C(C[*:3])[*:2]].F.[meA].N.P.H.L.[Sar].W.S.W.S.[CCCC[C@@H](C(=O)[*:2])N(C)[*:1]].R.C.G.[am]}$PEPTIDE1,PEPTIDE1,1:R3-15:R3$$$V2.0; SMILES CCCC[C@H]1C(=O)N[C@@H](CCCNC(=N)N)C(=O)N[C@H](C(=O)NCC(N)=O)CSCC(=O)N[C@@H](Cc2ccccc2)C(=O)N(C)[C@@H](C)C(=O)N[C@@H](CC(N)=O)C(=O)N2CCC[C@H]2C(=O)N[C@@H](Cc2c[nH]cn2)C(=O)N[C@@H](CC(C)C)C(=O)N(C)CC(=O)N[C@@H](Cc2c[nH]c3ccccc23)C(=O)N[C@@H](CO)C(=O)N[C@@H](Cc2c[nH]c3ccccc23)C(=O)N[C@@H](CO)C(=O)N1C, macrocyclic peptide cyclized via the ClAc moiety with the downstream cysteine) [Compound No. 68]	2060

biological target: T1, hPDL1(19-239)-TVMV-His; assay: as above; remark: another data set of the same source
Method: as §1
HTRF experiments were performed essentially as outlined supra. Variant macrocyclic peptides were created as outlined herein.

Binder	IC50 [nM]
FFXGDVFYGWYLCG (HELM PEPTIDE1{[O=C(C[*:3])[*:2]].F.[meF].[CCCC[C@@H](C(=O)[*:2])N(C)[*:1]].[Sar].D.V.[meF].Y.[Sar].W.Y.L.C.G.[am]}$PEPTIDE1,PEPTIDE1,1:R3-14:R3$$$V2.0; SMILES CCCC[C@H]1C(=O)N(C)CC(=O)N[C@@H](CC(=O)O)C(=O)N[C@@H](C(C)C)C(=O)N(C)[C@@H](Cc2ccccc2)C(=O)N[C@@H](Cc2ccc(O)cc2)C(=O)N(C)CC(=O)N[C@@H](Cc2c[nH]c3ccccc23)C(=O)N[C@@H](Cc2ccc(O)cc2)C(=O)N[C@@H](CC(C)C)C(=O)N[C@H](C(=O)NCC(N)=O)CSCC(=O)N[C@@H](Cc2ccccc2)C(=O)N(C)[C@@H](Cc2ccccc2)C(=O)N1C, macrocyclic peptide cyclized via the ClAc moiety with the downstream cysteine; parent of the Formula II series) [Compound No. 71]	7
FFXGDVFYGWYACG (HELM PEPTIDE1{[O=C(C[*:3])[*:2]].F.[meF].[CCCC[C@@H](C(=O)[*:2])N(C)[*:1]].[Sar].D.V.[meF].Y.[Sar].W.Y.A.C.G.[am]}$PEPTIDE1,PEPTIDE1,1:R3-14:R3$$$V2.0; SMILES CCCC[C@H]1C(=O)N(C)CC(=O)N[C@@H](CC(=O)O)C(=O)N[C@@H](C(C)C)C(=O)N(C)[C@@H](Cc2ccccc2)C(=O)N[C@@H](Cc2ccc(O)cc2)C(=O)N(C)CC(=O)N[C@@H](Cc2c[nH]c3ccccc23)C(=O)N[C@@H](Cc2ccc(O)cc2)C(=O)N[C@@H](C)C(=O)N[C@H](C(=O)NCC(N)=O)CSCC(=O)N[C@@H](Cc2ccccc2)C(=O)N(C)[C@@H](Cc2ccccc2)C(=O)N1C, macrocyclic peptide cyclized via the ClAc moiety with the downstream cysteine; variant of Compound No. 71 (Ala at 12)) [Compound No. 87]	25
FFXGDVFYAWYLCG (HELM PEPTIDE1{[O=C(C[*:3])[*:2]].F.[meF].[CCCC[C@@H](C(=O)[*:2])N(C)[*:1]].[Sar].D.V.[meF].Y.[meA].W.Y.L.C.G.[am]}$PEPTIDE1,PEPTIDE1,1:R3-14:R3$$$V2.0; SMILES CCCC[C@H]1C(=O)N(C)CC(=O)N[C@@H](CC(=O)O)C(=O)N[C@@H](C(C)C)C(=O)N(C)[C@@H](Cc2ccccc2)C(=O)N[C@@H](Cc2ccc(O)cc2)C(=O)N(C)[C@@H](C)C(=O)N[C@@H](Cc2c[nH]c3ccccc23)C(=O)N[C@@H](Cc2ccc(O)cc2)C(=O)N[C@@H](CC(C)C)C(=O)N[C@H](C(=O)NCC(N)=O)CSCC(=O)N[C@@H](Cc2ccccc2)C(=O)N(C)[C@@H](Cc2ccccc2)C(=O)N1C, macrocyclic peptide cyclized via the ClAc moiety with the downstream cysteine; variant of Compound No. 71 (mAla at 9)) [Compound No. 84]	42
FFXADVFYGWYLCG (HELM PEPTIDE1{[O=C(C[*:3])[*:2]].F.[meF].[CCCC[C@@H](C(=O)[*:2])N(C)[*:1]].[meA].D.V.[meF].Y.[Sar].W.Y.L.C.G.[am]}$PEPTIDE1,PEPTIDE1,1:R3-14:R3$$$V2.0; SMILES CCCC[C@H]1C(=O)N(C)[C@@H](C)C(=O)N[C@@H](CC(=O)O)C(=O)N[C@@H](C(C)C)C(=O)N(C)[C@@H](Cc2ccccc2)C(=O)N[C@@H](Cc2ccc(O)cc2)C(=O)N(C)CC(=O)N[C@@H](Cc2c[nH]c3ccccc23)C(=O)N[C@@H](Cc2ccc(O)cc2)C(=O)N[C@@H](CC(C)C)C(=O)N[C@H](C(=O)NCC(N)=O)CSCC(=O)N[C@@H](Cc2ccccc2)C(=O)N(C)[C@@H](Cc2ccccc2)C(=O)N1C, macrocyclic peptide cyclized via the ClAc moiety with the downstream cysteine; variant of Compound No. 71 (mAla at 4)) [Compound No. 77]	24
FFXGDVFYGWALCG (HELM PEPTIDE1{[O=C(C[*:3])[*:2]].F.[meF].[CCCC[C@@H](C(=O)[*:2])N(C)[*:1]].[Sar].D.V.[meF].Y.[Sar].W.A.L.C.G.[am]}$PEPTIDE1,PEPTIDE1,1:R3-14:R3$$$V2.0; SMILES CCCC[C@H]1C(=O)N(C)CC(=O)N[C@@H](CC(=O)O)C(=O)N[C@@H](C(C)C)C(=O)N(C)[C@@H](Cc2ccccc2)C(=O)N[C@@H](Cc2ccc(O)cc2)C(=O)N(C)CC(=O)N[C@@H](Cc2c[nH]c3ccccc23)C(=O)N[C@@H](C)C(=O)N[C@@H](CC(C)C)C(=O)N[C@H](C(=O)NCC(N)=O)CSCC(=O)N[C@@H](Cc2ccccc2)C(=O)N(C)[C@@H](Cc2ccccc2)C(=O)N1C, macrocyclic peptide cyclized via the ClAc moiety with the downstream cysteine; variant of Compound No. 71 (Ala at 11)) [Compound No. 86]	820
FFXGDVFAGWYLCG (HELM PEPTIDE1{[O=C(C[*:3])[*:2]].F.[meF].[CCCC[C@@H](C(=O)[*:2])N(C)[*:1]].[Sar].D.V.[meF].A.[Sar].W.Y.L.C.G.[am]}$PEPTIDE1,PEPTIDE1,1:R3-14:R3$$$V2.0; SMILES CCCC[C@H]1C(=O)N(C)CC(=O)N[C@@H](CC(=O)O)C(=O)N[C@@H](C(C)C)C(=O)N(C)[C@@H](Cc2ccccc2)C(=O)N[C@@H](C)C(=O)N(C)CC(=O)N[C@@H](Cc2c[nH]c3ccccc23)C(=O)N[C@@H](Cc2ccc(O)cc2)C(=O)N[C@@H](CC(C)C)C(=O)N[C@H](C(=O)NCC(N)=O)CSCC(=O)N[C@@H](Cc2ccccc2)C(=O)N(C)[C@@H](Cc2ccccc2)C(=O)N1C, macrocyclic peptide cyclized via the ClAc moiety with the downstream cysteine; variant of Compound No. 71 (Ala at 8)) [Compound No. 83]	35
AFXGDVFYGWYLCG (HELM PEPTIDE1{[O=C(C[*:3])[*:2]].A.[meF].[CCCC[C@@H](C(=O)[*:2])N(C)[*:1]].[Sar].D.V.[meF].Y.[Sar].W.Y.L.C.G.[am]}$PEPTIDE1,PEPTIDE1,1:R3-14:R3$$$V2.0; SMILES CCCC[C@H]1C(=O)N(C)CC(=O)N[C@@H](CC(=O)O)C(=O)N[C@@H](C(C)C)C(=O)N(C)[C@@H](Cc2ccccc2)C(=O)N[C@@H](Cc2ccc(O)cc2)C(=O)N(C)CC(=O)N[C@@H](Cc2c[nH]c3ccccc23)C(=O)N[C@@H](Cc2ccc(O)cc2)C(=O)N[C@@H](CC(C)C)C(=O)N[C@H](C(=O)NCC(N)=O)CSCC(=O)N[C@@H](C)C(=O)N(C)[C@@H](Cc2ccccc2)C(=O)N1C, macrocyclic peptide cyclized via the ClAc moiety with the downstream cysteine; variant of Compound No. 71 (Ala at 1)) [Compound No. 72]	4230
FFXGDAFYGWYLCG (HELM PEPTIDE1{[O=C(C[*:3])[*:2]].F.[meF].[CCCC[C@@H](C(=O)[*:2])N(C)[*:1]].[Sar].D.A.[meF].Y.[Sar].W.Y.L.C.G.[am]}$PEPTIDE1,PEPTIDE1,1:R3-14:R3$$$V2.0; SMILES CCCC[C@H]1C(=O)N(C)CC(=O)N[C@@H](CC(=O)O)C(=O)N[C@@H](C)C(=O)N(C)[C@@H](Cc2ccccc2)C(=O)N[C@@H](Cc2ccc(O)cc2)C(=O)N(C)CC(=O)N[C@@H](Cc2c[nH]c3ccccc23)C(=O)N[C@@H](Cc2ccc(O)cc2)C(=O)N[C@@H](CC(C)C)C(=O)N[C@H](C(=O)NCC(N)=O)CSCC(=O)N[C@@H](Cc2ccccc2)C(=O)N(C)[C@@H](Cc2ccccc2)C(=O)N1C, macrocyclic peptide cyclized via the ClAc moiety with the downstream cysteine; variant of Compound No. 71 (Ala at 6)) [Compound No. 80]	264
